From patent US20240117011A1 (US Dept. of Health and Human Services, published 2024)

Assays:
[1] = target: full-length spike B.1.617.2 (SARS-CoV-2, UniProt P0DTC2 13-1273); assay: cell-based or functional assay
[2] = target: spike of variant B.1.1.345 on pseudotyped lentiviral particles; assay: cell-based or functional assay

B1: A19-46.1 (antibody, V domains shown)
VH: QVQLVESGGGVVQPGRSLRLSCAASGFTLSSYGMHWVRQAPGKGLEWVAVISYDGSNKYYVDSVKGRFTISRDNSKNTLYLQMNSLRAEDTAVYYCARGWAYWELLPDYYYGMDVWGQGTTVTVSS
VL: QTVVTQEPSFSVSPGGTVTLTCGLSSGSVSTAYFPSWYQQTPGQAPRTLIYGTNTRSSGVPDRFSGSILGNKAALTITGAQADDESDYYCVLYMGRGIVVFGGGTKLTVL
[1]
  neutralization IC50: > 10 µg/mL
[2]
  pseudotyped virus neutralization IC50: 0.095 µg/mL
